In the experiment the target is recombinant Fc-fused SARS-CoV-2 RBD protein (Severe acute respiratory syndrome …, UniProt P0DTC2). The experiment in a line: SPR. To be noted: both partners purified.

B1: AZD8895-450 (antibody, V domains shown)
VH: QMQLVQSGPEVKKPGTSVKVSCKASGFTFMSSAVQWVRQARGQRLEWIGWIVIGSGNTNYAQKFQERVTITRDMSTSTAYMELSSLRSEDTAVYYCAANYCSSTICSDGMDIWGQGTMVTVSS
VL: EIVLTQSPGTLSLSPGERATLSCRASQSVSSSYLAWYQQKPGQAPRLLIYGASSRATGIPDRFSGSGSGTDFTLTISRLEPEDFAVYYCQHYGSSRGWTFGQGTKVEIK
The Kd is a measure of binding affinity in units of concentration. Regarding B1, the Kd amounted to 16.5 nM.

B2: AZD8895 (antibody, V domains shown)
VH: QMQLVQSGPEVKKPGTSVKVSCKASGFTFMSSAVQWVRQARGQRLEWIGWIVIGSGNTNYAQKFQERVTITRDMSTSTAYMELSSLRSEDTAVYYCAAPYCSSISCNDGFDIWGQGTMVTVSS
VL: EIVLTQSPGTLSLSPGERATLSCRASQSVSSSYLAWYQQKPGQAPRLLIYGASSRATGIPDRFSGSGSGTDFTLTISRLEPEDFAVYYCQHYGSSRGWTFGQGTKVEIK
notes: also called seed antibody AZD8895; seed mAb; source: HEK293, transient transfection, purified (HiTrap Protein A HP)
As to B2, the Kd came to 12.6 nM.

B3: AZD8895-275 (antibody, V domains shown)
VH: QMQLVQSGPEVKKPGTSVKVSCKASGFTFMSSAVQWVRQARGQRLEWIGWIVIGSGNTNYAQKFQERVTITRDMSTSTAYMELSSLRSEDTAVYYCAAPYCSLTYCSDGFDIWGQGTMVTVSS
VL: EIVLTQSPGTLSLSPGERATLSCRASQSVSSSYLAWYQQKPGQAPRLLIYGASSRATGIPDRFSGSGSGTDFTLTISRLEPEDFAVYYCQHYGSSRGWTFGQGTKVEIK
Regarding B3, the Kd was determined as 8.42 nM.

B4: AZD8895-25 (antibody, V domains shown)
VH: QMQLVQSGPEVKKPGTSVKVSCKASGFTFMSSAVQWVRQARGQRLEWIGWIVIGSGNTNYAQKFQERVTITRDMSTSTAYMELSSLRSEDTAVYYCAAPYCSLTCCSDGFDIWGQGTMVTVSS
VL: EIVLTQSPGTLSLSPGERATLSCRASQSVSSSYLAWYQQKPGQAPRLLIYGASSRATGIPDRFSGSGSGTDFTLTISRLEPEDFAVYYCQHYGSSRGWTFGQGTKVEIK
With B4, the Kd is 4.79 nM.

B5: AZD8895-449 (antibody, V domains shown)
VH: QMQLVQSGPEVKKPGTSVKVSCKASGFTFMSSAVQWVRQARGQRLEWIGWIVIGSGNTNYAQKFQERVTITRDMSTSTAYMELSSLRSEDTAVYYCAAPYCSLTNCSDGFDIWGQGTMVTVSS
VL: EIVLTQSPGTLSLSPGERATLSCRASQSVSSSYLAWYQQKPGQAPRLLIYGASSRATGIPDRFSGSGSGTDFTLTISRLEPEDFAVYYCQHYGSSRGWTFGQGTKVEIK
Regarding B5, the Kd stood at 13.2 nM.

(Values after article PMC12847411, “High-affinity optimization potential of the virus neutralizing antibody with twin cysteine-stabilized complementarity-determining region 3” (Frontiers in Cellular and Infection Microbiology, 2025).)
